Laboratory results as given in IntAct's records for PubMed 40624043.

B1: NTF2-related export protein 2 (Homo sapiens), Q9NPJ8-3 (parent)
chain: MRKYRSHWSQGDREGYQRRSNYYEGPHTSHSSPADRTREEVVTPTLPEHTATRSQMATSLDFKTYVDQACRAAEEFVNIYYETMDKRRRALTRLYLDKATLIWNGNAVSGLDALNNFFDTLPSSEFQVNMLDCQPVHEQATQSQTTVLVVTSGTVKFDGNKQHFFNQNFLLTAQSTPNNTVWKIASDCFRFQDWSSS
partner: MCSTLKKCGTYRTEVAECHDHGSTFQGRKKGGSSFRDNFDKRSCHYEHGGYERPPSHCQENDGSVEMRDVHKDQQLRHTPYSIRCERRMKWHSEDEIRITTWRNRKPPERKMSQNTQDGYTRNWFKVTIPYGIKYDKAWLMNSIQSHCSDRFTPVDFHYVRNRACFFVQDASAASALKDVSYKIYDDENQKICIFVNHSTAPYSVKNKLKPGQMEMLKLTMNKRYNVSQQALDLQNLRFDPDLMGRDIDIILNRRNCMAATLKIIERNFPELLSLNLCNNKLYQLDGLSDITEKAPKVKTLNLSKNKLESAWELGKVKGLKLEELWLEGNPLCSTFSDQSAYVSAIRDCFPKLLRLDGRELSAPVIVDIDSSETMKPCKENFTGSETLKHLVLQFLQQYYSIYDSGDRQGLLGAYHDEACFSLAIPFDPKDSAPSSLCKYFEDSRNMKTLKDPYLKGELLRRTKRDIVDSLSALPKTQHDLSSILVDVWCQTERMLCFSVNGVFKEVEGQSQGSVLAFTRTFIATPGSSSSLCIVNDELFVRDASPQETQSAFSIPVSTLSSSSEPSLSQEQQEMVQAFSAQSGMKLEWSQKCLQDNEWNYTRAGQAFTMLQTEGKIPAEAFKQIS
B2: NTF2-related export protein 2 (Homo sapiens), Q9NPJ8-3 (parent)
chain: B1 chain
partner: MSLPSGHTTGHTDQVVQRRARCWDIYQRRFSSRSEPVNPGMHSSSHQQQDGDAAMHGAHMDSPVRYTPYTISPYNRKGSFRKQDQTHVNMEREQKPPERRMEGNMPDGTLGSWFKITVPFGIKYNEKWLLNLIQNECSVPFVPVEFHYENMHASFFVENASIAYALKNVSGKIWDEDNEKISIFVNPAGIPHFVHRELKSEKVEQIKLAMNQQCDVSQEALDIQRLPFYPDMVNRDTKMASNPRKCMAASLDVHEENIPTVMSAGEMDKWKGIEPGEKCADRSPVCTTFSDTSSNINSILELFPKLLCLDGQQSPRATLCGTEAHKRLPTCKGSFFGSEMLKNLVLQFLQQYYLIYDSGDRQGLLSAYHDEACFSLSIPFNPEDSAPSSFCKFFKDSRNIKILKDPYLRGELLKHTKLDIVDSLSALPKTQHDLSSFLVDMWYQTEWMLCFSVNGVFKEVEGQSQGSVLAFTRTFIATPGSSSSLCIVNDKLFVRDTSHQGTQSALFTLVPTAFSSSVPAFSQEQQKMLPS

Variants of: B1
Settings: with nxf2_human NXF2B

Row | Variant | effect of a mutation on the interaction
1 | MRKYRSHWSQGDREGYQRRSNYYEGPHTSHSSPADRTREEVVTPTLPEHTATRSQMATSLDFKTYVDQACRAAEEFVNIYYETMDKRRRSLTRLYLDKATLIWNGNAVSGLDALNNFFDTLPSSEFQVNMLDCQPVHEQATQSQTTVLVVTSGTVKFDGNKQHFFNQNFLLTAQSTPNNTVWKIASDCFRFQDWSSS | with no effect

Variants of: B2
Settings: with NXF3, Q9H4D5-1

Row | Variant | effect of a mutation on the interaction
2 | MRKYRSHWSQGDREGYQRRSNYYEGPHTSHSSPADRTREEVVTPTLPEHTATRSQMATSLDFKTYVDQACRAAEEFVNIYYETMDKRRRSLTRLYLDKATLIWNGNAVSGLDALNNFFDTLPSSEFQVNMLDCQPVHEQATQSQTTVLVVTSGTVKFDGNKQHFFNQNFLLTAQSTPNNTVWKIASDCFRFQDWSSS | with no effect
